Data published in publication PMC7615972.

Legend:
Assay in all cases: SPR; mouse CACHD1ECD as analyte; FZD CRDs or LRP6 fragments immobilised; equilibrium dissociation constants
[1] = biological target: human FZD7 cysteine-rich domain (FZD7CRD) (human) (UniProt O75084)
[2] = biological target: human FZD8 cysteine-rich domain (FZD8CRD) (human) (UniProt Q9H461)
[3] = biological target: human LRP6 membrane distal fragment (LRP6_(P1E1P2E2)) (human) (UniProt O75581)
Chain of human LRP6 membrane distal fragment (LRP6_(P1E1P2E2)) (human) (O75581 20-1613): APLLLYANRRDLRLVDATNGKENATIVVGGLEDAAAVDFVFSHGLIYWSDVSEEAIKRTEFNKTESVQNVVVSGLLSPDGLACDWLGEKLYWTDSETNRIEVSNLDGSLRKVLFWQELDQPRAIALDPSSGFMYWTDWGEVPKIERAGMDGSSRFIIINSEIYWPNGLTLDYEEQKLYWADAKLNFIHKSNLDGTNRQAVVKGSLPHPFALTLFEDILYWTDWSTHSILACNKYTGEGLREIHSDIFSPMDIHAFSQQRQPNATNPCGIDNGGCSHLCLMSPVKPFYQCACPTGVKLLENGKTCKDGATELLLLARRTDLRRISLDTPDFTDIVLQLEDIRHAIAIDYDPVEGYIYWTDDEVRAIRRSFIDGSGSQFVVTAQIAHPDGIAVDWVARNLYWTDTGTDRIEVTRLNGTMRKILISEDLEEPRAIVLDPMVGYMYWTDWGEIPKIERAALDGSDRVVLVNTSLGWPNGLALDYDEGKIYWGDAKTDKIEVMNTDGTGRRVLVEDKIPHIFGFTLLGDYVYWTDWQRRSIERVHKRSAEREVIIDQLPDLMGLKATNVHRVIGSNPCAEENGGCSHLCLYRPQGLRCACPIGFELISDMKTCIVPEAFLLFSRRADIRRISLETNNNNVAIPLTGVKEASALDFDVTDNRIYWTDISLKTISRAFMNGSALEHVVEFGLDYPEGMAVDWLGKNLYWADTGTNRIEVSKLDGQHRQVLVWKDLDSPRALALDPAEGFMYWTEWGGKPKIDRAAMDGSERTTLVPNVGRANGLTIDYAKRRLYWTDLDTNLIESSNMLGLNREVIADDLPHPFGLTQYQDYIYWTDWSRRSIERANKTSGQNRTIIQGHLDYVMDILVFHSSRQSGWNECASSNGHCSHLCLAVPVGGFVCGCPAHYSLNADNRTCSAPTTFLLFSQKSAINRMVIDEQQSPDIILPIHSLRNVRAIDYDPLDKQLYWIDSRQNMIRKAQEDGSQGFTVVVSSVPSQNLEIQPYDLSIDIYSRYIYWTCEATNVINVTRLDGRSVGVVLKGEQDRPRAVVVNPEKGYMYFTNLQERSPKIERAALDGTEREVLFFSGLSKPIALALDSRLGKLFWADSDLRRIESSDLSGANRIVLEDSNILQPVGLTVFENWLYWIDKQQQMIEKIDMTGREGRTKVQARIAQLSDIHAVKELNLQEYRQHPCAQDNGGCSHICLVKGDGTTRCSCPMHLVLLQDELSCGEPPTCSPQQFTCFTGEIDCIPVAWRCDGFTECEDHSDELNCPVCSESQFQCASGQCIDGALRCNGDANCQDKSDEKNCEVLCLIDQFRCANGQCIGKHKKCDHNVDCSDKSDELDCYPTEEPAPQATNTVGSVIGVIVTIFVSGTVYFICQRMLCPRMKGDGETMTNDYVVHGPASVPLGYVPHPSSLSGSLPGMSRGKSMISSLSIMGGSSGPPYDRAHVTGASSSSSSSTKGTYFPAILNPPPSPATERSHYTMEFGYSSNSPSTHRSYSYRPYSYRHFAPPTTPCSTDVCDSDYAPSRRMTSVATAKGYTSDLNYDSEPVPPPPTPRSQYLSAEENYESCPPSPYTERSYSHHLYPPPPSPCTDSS

Chain of purified mouse CACHD1 extracellular domain (CACHD1ECD) (Q6PDJ1 50-1109): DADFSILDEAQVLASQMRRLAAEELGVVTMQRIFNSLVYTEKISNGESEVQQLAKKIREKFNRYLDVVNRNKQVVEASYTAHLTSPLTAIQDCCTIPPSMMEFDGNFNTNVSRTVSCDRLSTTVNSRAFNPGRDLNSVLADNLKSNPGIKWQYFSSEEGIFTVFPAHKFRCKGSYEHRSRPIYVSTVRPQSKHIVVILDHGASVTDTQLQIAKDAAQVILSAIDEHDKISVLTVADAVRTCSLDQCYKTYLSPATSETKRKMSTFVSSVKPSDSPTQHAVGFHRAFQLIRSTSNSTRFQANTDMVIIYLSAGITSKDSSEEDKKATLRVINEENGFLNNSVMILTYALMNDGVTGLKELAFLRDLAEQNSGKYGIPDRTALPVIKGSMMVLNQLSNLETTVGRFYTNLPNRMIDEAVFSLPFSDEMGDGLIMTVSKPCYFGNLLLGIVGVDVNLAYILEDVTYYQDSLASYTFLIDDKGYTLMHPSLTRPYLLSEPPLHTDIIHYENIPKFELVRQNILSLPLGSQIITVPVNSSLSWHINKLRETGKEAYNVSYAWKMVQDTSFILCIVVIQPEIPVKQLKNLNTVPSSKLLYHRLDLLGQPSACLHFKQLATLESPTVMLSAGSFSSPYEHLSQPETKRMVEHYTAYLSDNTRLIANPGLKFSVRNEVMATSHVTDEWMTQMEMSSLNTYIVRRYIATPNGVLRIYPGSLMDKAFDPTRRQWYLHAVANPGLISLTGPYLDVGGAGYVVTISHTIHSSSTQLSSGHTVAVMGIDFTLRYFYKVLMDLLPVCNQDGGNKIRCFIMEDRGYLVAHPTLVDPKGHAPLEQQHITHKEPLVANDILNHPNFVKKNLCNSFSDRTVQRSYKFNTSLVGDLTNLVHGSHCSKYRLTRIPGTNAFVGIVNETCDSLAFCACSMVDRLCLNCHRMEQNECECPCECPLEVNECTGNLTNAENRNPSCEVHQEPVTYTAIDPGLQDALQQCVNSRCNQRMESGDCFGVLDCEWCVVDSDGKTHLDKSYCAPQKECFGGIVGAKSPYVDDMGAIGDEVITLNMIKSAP
Chain of human FZD8 cysteine-rich domain (FZD8CRD) (human) (Q9H461 28-694): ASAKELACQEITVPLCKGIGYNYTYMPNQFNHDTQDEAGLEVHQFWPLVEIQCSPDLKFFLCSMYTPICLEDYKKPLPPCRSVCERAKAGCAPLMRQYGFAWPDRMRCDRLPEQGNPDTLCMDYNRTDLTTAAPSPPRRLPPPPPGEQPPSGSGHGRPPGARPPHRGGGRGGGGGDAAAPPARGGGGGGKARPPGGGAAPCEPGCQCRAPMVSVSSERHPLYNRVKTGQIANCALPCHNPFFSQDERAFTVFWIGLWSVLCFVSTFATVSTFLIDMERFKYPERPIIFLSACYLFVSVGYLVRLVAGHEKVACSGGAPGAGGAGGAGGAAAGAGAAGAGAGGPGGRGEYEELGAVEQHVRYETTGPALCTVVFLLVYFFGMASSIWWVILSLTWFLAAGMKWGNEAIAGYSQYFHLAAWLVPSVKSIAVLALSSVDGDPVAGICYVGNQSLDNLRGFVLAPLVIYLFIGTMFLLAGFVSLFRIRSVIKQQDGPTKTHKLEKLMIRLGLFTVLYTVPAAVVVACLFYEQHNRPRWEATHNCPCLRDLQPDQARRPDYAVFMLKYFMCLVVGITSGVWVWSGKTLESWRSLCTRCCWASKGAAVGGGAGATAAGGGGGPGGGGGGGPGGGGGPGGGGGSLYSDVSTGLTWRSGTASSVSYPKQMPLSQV

purified mouse CACHD1 extracellular domain (CACHD1ECD) (from UniProt Q6PDJ1 50-1109) (domain or fragment)
Kd [1]: 14.2 µM
Kd [2]: 0.95 µM
Kd [3]: 5.86 µM
